± gives the standard error. For some assays here: Fewer inactive variants are shown than the library holds.
B1: glmS ribozyme (parent)
chain: AUAAAAGCGCCAGAACUACAGAAAUGUAGUUGACGAGGAGGAGGUUUAUCGAAUUUUCGGCGGAUGCCUCCAAA

How the values were obtained:
Conditions in all cases: with glucosamine-6-phosphate
glucosamine-6-phosphate [1] = variants of: B1; test: kcat; higher = faster cleavage; RNA array
How it was run: (§1)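 Glucosamine-6-phosphate (40 μM to 10 mM) in HEPES/KCl/Mg(OAc)2 buffer was flowed over sequenced MiSeq chips, and tiles were imaged over ~14 h. Barcoded ribozyme variants there had been transcribed in situ by E. coli RNA polymerase and were tracked through a hybridised Cy3 probe at 37 °C. One- or two-exponential decay fits to per-tile medians, normalised to baseline and to non-cleaving reference variants, gave kobs. kcat and KM came from weighted Michaelis–Menten fits across concentrations.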

glucosamine-6-phosphate [2] = variants of: B1; test: self-cleavage kobs at 160 uM GlcN6P; higher = faster cleavage; RNA array
How it was run: as §1

glucosamine-6-phosphate [3] = variants of: B1; test: self-cleavage kobs at 640 uM GlcN6P; higher = faster cleavage; RNA array
How it was run: as §1

glucosamine-6-phosphate [4] = variants of: B1; test: self-cleavage kobs at 2500 uM GlcN6P; higher = faster cleavage; RNA array
How it was run: as §1

glucosamine-6-phosphate [5] = variants of: B1; test: self-cleavage kobs at 40 uM GlcN6P; higher = faster cleavage; RNA array
How it was run: as §1

glucosamine-6-phosphate [6] = variants of: B1; test: self-cleavage kobs at 10000 uM GlcN6P; higher = faster cleavage; RNA array
How it was run: as §1

glucosamine-6-phosphate [7] = variants of: B1; test: KM; higher = weaker cofactor use; RNA array
How it was run: as §1

AUAAAAGCGCCAGAACUACAGAAAUGUAGUUGAGGAGGAGGAGGUUGAUCGAAUUUUAGGCGGAUGCAUCCAAA [C34G U47G C58A C68A]
kcat (glucosamine-6-phosphate [1]): 5.47e-05 ± 1.4e-05 s⁻¹ | self-cleavage kobs at 160 uM GlcN6P (glucosamine-6-phosphate [2]): 6.99e-05 ± 1.7e-05 s⁻¹ | self-cleavage kobs at 640 uM GlcN6P (glucosamine-6-phosphate [3]): 6.8e-05 ± 3.3e-05 s⁻¹ | self-cleavage kobs at 2500 uM GlcN6P (glucosamine-6-phosphate [4]): 6.86e-05 ± 2.9e-05 s⁻¹

AUAAAAGCGCCAGAACUACAGAAAUGUAGUUGACGGGGAGGAGGUUUAUCGAAUCUUCGGCGGAUGCCUCCAAA [A36G U55C]
kcat (glucosamine-6-phosphate [1]): 1.01e-05 ± 4e-06 s⁻¹

AUAAAAGCGCCAGAACUACAGAAAUGUAGUUGACGAGGAGGAGGUUUAUCGAAUUGUCGGCGGAUGCCACCAAA [U56G U69A]
kcat (glucosamine-6-phosphate [1]): 0.00018 ± 3.2e-05 s⁻¹ | self-cleavage kobs at 40 uM GlcN6P (glucosamine-6-phosphate [5]): 4.08e-05 ± 1.8e-05 s⁻¹ | self-cleavage kobs at 640 uM GlcN6P (glucosamine-6-phosphate [3]): 0.000102 ± 2.7e-05 s⁻¹ | self-cleavage kobs at 2500 uM GlcN6P (glucosamine-6-phosphate [4]): 0.000186 ± 3.1e-05 s⁻¹ | self-cleavage kobs at 10000 uM GlcN6P (glucosamine-6-phosphate [6]): 0.000176 ± 3.7e-05 s⁻¹

AUAAAAGCGCCAGAACUACAGAAAUGUAGUUGACGAGGAGGAGGUUCAUCGAAUUUUAGGCGGAUGCCUCCAAA [U47C C58A]
kcat (glucosamine-6-phosphate [1]): 0.00036 ± 6e-05 s⁻¹ | KM (glucosamine-6-phosphate [7]): 4240 ± 1300 µM | self-cleavage kobs at 640 uM GlcN6P (glucosamine-6-phosphate [3]): 3.95e-05 ± 1.1e-05 s⁻¹ | self-cleavage kobs at 2500 uM GlcN6P (glucosamine-6-phosphate [4]): 0.00016 ± 2.7e-05 s⁻¹ | self-cleavage kobs at 10000 uM GlcN6P (glucosamine-6-phosphate [6]): 0.000244 ± 3.3e-05 s⁻¹

AUAAAAGCGCCAGAACUACAGAAAUGUAGUUGACGAGGAGGAGGUUUAUCGAAUUAUCGGCGGAUACCUCCAAA [U56A G66A]
kcat (glucosamine-6-phosphate [1]): 0.00503 ± 0.0023 s⁻¹ | self-cleavage kobs at 40 uM GlcN6P (glucosamine-6-phosphate [5]): 0.000167 ± 1.7e-05 s⁻¹ | self-cleavage kobs at 160 uM GlcN6P (glucosamine-6-phosphate [2]): 0.00039 ± 6.4e-05 s⁻¹ | self-cleavage kobs at 640 uM GlcN6P (glucosamine-6-phosphate [3]): 0.00117 ± 0.00021 s⁻¹ | self-cleavage kobs at 2500 uM GlcN6P (glucosamine-6-phosphate [4]): 0.00253 ± 0.00043 s⁻¹ | self-cleavage kobs at 10000 uM GlcN6P (glucosamine-6-phosphate [6]): 0.00718 ± 0.0011 s⁻¹

AUAAAAGCGCCAGAACUACAGAAAUGUAGUUGACGAGGAGGAGGUUUAUCGAAUUUUCUGCGGAUGGCUCCAAA [G59U C67G]
kcat (glucosamine-6-phosphate [1]): 1.65e-05 ± 6.4e-06 s⁻¹

AUAAAAGCGCCAGAACUACAGAAAUGUAGUUGACGAGGAGGAGGUUAAUCGUAUUUUCGGCGGAUGCCUCCAAA [U47A A52U]
kcat (glucosamine-6-phosphate [1]): 0.000365 ± 3.9e-05 s⁻¹ | KM (glucosamine-6-phosphate [7]): 2690 ± 570 µM | self-cleavage kobs at 640 uM GlcN6P (glucosamine-6-phosphate [3]): 7.72e-05 ± 1.5e-05 s⁻¹ | self-cleavage kobs at 2500 uM GlcN6P (glucosamine-6-phosphate [4]): 0.000158 ± 3e-05 s⁻¹ | self-cleavage kobs at 10000 uM GlcN6P (glucosamine-6-phosphate [6]): 0.000299 ± 4.3e-05 s⁻¹

AUAAAAGCGCUAGAACUACAGAAAUGUAGUUGACGAGGAGGAGGUUUAUCGAAUUUUCGGUGGAUGCCUCCAAA [C11U C61U]
kcat (glucosamine-6-phosphate [1]): < 1e-05 s⁻¹ | KM (glucosamine-6-phosphate [7]): 122 ± 8.2 µM | self-cleavage kobs at 40 uM GlcN6P (glucosamine-6-phosphate [5]): < 1e-05 s⁻¹ | self-cleavage kobs at 640 uM GlcN6P (glucosamine-6-phosphate [3]): < 1e-05 s⁻¹ | self-cleavage kobs at 10000 uM GlcN6P (glucosamine-6-phosphate [6]): < 1e-05 s⁻¹

AUAAAAGCGCCAGAACUACAGAAAUGUAGUUGACGAGGAGGUGGAUUAUCGAAUUUUCGGCGGAUGCCUCCAAA [A42U U45A]
kcat (glucosamine-6-phosphate [1]): 0.000149 ± 2.4e-05 s⁻¹ | KM (glucosamine-6-phosphate [7]): 1500 ± 680 µM | self-cleavage kobs at 640 uM GlcN6P (glucosamine-6-phosphate [3]): 3.93e-05 ± 1e-05 s⁻¹ | self-cleavage kobs at 2500 uM GlcN6P (glucosamine-6-phosphate [4]): 0.000134 ± 2.6e-05 s⁻¹ | self-cleavage kobs at 10000 uM GlcN6P (glucosamine-6-phosphate [6]): 0.000123 ± 1.6e-05 s⁻¹

AUAAAAGCGCCAGAACUACAGAAAUGUAGUUGACGAGGCGGAGGUUGAUCGAAUUUUCGGCGGAUGCCUCCAAA [A39C U47G]
kcat (glucosamine-6-phosphate [1]): 0.00107 ± 0.00043 s⁻¹ | self-cleavage kobs at 640 uM GlcN6P (glucosamine-6-phosphate [3]): 0.000286 ± 5.5e-05 s⁻¹ | self-cleavage kobs at 2500 uM GlcN6P (glucosamine-6-phosphate [4]): 0.000425 ± 0.0001 s⁻¹ | self-cleavage kobs at 10000 uM GlcN6P (glucosamine-6-phosphate [6]): 0.00109 ± 0.0002 s⁻¹

AUAAACGCGCCAGAACUACAGAAAUGUAGUUGACGAGGAGGAGGUUUAUCGAAUUUUCGGCGGAUGACUCCAAA [A6C C67A]
kcat (glucosamine-6-phosphate [1]): 3.57e-05 ± 2.8e-07 s⁻¹ | KM (glucosamine-6-phosphate [7]): 1260 ± 54 µM | self-cleavage kobs at 10000 uM GlcN6P (glucosamine-6-phosphate [6]): 3.18e-05 ± 9.1e-06 s⁻¹

AUAAAAGCGCCAGAACUACAGAAAUGUAGUUGACGAGGAGGAUGUUUAUCGAAUUUUCGGCGGAUGCCUCCAAA [G43U]
kcat (glucosamine-6-phosphate [1]): 4.89e-05 ± 4.3e-06 s⁻¹ | KM (glucosamine-6-phosphate [7]): 986 ± 410 µM | self-cleavage kobs at 40 uM GlcN6P (glucosamine-6-phosphate [5]): < 1e-05 s⁻¹ | self-cleavage kobs at 640 uM GlcN6P (glucosamine-6-phosphate [3]): 1.42e-05 ± 2e-06 s⁻¹ | self-cleavage kobs at 2500 uM GlcN6P (glucosamine-6-phosphate [4]): 3.98e-05 ± 1.6e-06 s⁻¹ | self-cleavage kobs at 10000 uM GlcN6P (glucosamine-6-phosphate [6]): 4.31e-05 ± 1.2e-06 s⁻¹

AUAAAAGCGCCAGAUCUACAGAAAUGUAGUUGACGAGGAGGAGGUUUAUGGAUUAUUCGGCGGAUGCCUCCAAA [A15U C50G A53U U55A]
kcat (glucosamine-6-phosphate [1]): 3.35e-05 ± 1.6e-05 s⁻¹ | self-cleavage kobs at 2500 uM GlcN6P (glucosamine-6-phosphate [4]): 4.02e-05 ± 1.8e-05 s⁻¹

AUAAAAGCUCCAGAACUACAGAAAUGUAGUUGACGAGGAGGGGGUUCAUCGAAUUUUCGGCGGAUGCCUCCAAA [G9U A42G U47C]
kcat (glucosamine-6-phosphate [1]): < 1e-05 s⁻¹ | self-cleavage kobs at 160 uM GlcN6P (glucosamine-6-phosphate [2]): < 1e-05 s⁻¹ | self-cleavage kobs at 640 uM GlcN6P (glucosamine-6-phosphate [3]): < 1e-05 s⁻¹

AUAAAAGCGCCAGAACUACAGAAAUGUAGUUGACGAGGCGGAGGUUUAUCGAAUUUUCGGCGGAUCCCUCCAAA [A39C G66C]
kcat (glucosamine-6-phosphate [1]): 0.00165 ± 0.00036 s⁻¹ | KM (glucosamine-6-phosphate [7]): 2780 ± 960 µM | self-cleavage kobs at 40 uM GlcN6P (glucosamine-6-phosphate [5]): 3.24e-05 ± 1.1e-05 s⁻¹ | self-cleavage kobs at 160 uM GlcN6P (glucosamine-6-phosphate [2]): 7.03e-05 ± 1.6e-05 s⁻¹ | self-cleavage kobs at 640 uM GlcN6P (glucosamine-6-phosphate [3]): 0.000348 ± 6.6e-05 s⁻¹ | self-cleavage kobs at 2500 uM GlcN6P (glucosamine-6-phosphate [4]): 0.00104 ± 0.00017 s⁻¹ | self-cleavage kobs at 10000 uM GlcN6P (glucosamine-6-phosphate [6]): 0.0012 ± 0.00016 s⁻¹

AUAAAAGCGCCAGAACUACAGAAAUGUAGUUGACGAGGAUGAGGUGUAUCGAAUUUUCGGCGGAUGCCUCCAAA [G40U U46G]
kcat (glucosamine-6-phosphate [1]): 0.00101 ± 0.00013 s⁻¹ | KM (glucosamine-6-phosphate [7]): 1860 ± 390 µM | self-cleavage kobs at 40 uM GlcN6P (glucosamine-6-phosphate [5]): 2.93e-05 ± 1.4e-05 s⁻¹ | self-cleavage kobs at 160 uM GlcN6P (glucosamine-6-phosphate [2]): 7.71e-05 ± 1.5e-05 s⁻¹ | self-cleavage kobs at 640 uM GlcN6P (glucosamine-6-phosphate [3]): 0.000242 ± 3.9e-05 s⁻¹ | self-cleavage kobs at 2500 uM GlcN6P (glucosamine-6-phosphate [4]): 0.000669 ± 8.8e-05 s⁻¹ | self-cleavage kobs at 10000 uM GlcN6P (glucosamine-6-phosphate [6]): 0.000785 ± 0.00012 s⁻¹

AUAAAAGCGCCAGAACUACAGAAAUGUAGUGGACGAGGAGGAGGUUUAGCGAAUUUUCGGCGGAUGCCUCCAAA [U31G U49G]
kcat (glucosamine-6-phosphate [1]): 0.000191 ± 2.6e-06 s⁻¹ | KM (glucosamine-6-phosphate [7]): 2140 ± 89 µM | self-cleavage kobs at 640 uM GlcN6P (glucosamine-6-phosphate [3]): 4.38e-05 ± 1.9e-05 s⁻¹ | self-cleavage kobs at 2500 uM GlcN6P (glucosamine-6-phosphate [4]): 0.000102 ± 1.4e-05 s⁻¹ | self-cleavage kobs at 10000 uM GlcN6P (glucosamine-6-phosphate [6]): 0.000157 ± 1.4e-05 s⁻¹
